From article PMC3932240 (Biochemistry, 2013)

Target: the molecule itself
Test: SEC

B1: CpcS-III bilin lyase from Thermosynechococcus elongatus BP-1, C-terminally His-tagged (from pTER13-21) (enzyme, UniProt Q8DI91 1-182, looked up)
chain: MCIGMDIRDFFAQSAGRWFSQRTSHHLAFKQTESGKSQLTIELLSVDDPAVIALCQQYDMDPAWAVCGARVSWDGTMEWDNEKHEGSTVLVPIMDQGSRMEGKLLREMGYAEKAPVAGRFSMGSDGALTLITEYETIYSEERLWFASPNLRLRTSILKRFGGFSMASFCSEIRLGVTQPANS
modifications: selenomethionine-labeled in the sample that was crystallized
stoichiometry N: 2
